Paper PMC5467389

Tests used:
[1] = biological target: HA-tagged spinophilin (human) (UniProt Q96SB3); test: co-IP; HEK293 cells co-transfected with HA-spinophilin, V5-NF-M and kinase dead K72H myc-PKAc; low-ionic Tris buffer with 1% Triton X-100; HA or V5 immunoprecipitation, immunoblot
PP1 = test: spinophilin IP, spectral counting by MS; settings: reference: intact (contralateral) striatum; sites S17,S100

UniProt Q96SB3, sequence (Q96SB3 whole entry): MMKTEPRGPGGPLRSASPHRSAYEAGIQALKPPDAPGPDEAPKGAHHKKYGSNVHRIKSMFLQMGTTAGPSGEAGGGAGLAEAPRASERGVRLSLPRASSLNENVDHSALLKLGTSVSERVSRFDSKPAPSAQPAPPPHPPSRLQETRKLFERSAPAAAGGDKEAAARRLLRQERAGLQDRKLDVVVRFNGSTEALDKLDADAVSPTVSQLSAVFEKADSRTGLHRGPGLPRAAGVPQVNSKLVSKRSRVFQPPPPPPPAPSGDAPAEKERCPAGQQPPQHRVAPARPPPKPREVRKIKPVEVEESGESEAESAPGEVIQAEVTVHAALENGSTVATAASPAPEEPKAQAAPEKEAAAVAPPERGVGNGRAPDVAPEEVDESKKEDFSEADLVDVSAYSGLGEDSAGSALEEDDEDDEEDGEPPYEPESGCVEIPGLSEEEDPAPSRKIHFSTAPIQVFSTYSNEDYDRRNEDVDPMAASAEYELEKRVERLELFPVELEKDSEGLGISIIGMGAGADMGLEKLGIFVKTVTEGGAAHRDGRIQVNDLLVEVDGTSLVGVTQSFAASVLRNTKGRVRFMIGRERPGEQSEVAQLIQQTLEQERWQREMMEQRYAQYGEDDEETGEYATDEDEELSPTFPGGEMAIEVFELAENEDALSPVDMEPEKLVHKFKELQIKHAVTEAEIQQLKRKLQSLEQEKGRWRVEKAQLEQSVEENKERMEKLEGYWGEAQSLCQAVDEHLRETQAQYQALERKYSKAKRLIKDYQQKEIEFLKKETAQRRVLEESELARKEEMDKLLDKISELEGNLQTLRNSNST
spinophilin, sequence (Q6R891 whole entry, looked up, change not shown): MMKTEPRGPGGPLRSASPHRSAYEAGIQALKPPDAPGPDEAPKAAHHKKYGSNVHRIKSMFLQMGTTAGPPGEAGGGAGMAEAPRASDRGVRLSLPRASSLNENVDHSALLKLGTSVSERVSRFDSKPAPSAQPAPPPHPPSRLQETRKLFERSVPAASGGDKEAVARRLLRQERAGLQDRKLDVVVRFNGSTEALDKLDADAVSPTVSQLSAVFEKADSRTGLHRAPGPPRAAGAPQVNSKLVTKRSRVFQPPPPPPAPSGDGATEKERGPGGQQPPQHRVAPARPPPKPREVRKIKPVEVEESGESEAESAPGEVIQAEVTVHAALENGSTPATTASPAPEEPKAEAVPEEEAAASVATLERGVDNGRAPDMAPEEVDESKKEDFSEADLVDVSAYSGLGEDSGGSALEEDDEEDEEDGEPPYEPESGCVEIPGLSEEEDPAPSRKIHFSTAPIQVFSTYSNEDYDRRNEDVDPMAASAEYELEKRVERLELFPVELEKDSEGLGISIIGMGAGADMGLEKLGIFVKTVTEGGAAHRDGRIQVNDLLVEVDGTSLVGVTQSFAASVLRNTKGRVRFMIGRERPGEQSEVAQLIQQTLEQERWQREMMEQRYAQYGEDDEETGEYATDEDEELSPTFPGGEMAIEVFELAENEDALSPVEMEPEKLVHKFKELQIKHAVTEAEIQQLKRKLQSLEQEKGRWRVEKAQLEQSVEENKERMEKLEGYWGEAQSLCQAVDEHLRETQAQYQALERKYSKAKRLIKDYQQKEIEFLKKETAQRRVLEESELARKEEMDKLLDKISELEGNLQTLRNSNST

| percent reduction of the association against wild type PKAc [1] | other: percent increase over reference (PP1) | Substance |
| --- | --- | --- |
| 63% |  | kinase dead (K72H mutant) myc-tagged PKAc (enzyme) |
|  | 28% | spinophilin (from UniProt Q6R891) 6-OHDA-lesioned (ipsilateral) striatum |
